Reference: patent US10946092 (BEIJING MABWORKS BIOTECH, dated 2021)
Each block holds one binder with its values, some of them ahead of it.

Key:
[1] = target: T1, mouse LAG3 expressed on HEK293A cells (mouse, UniProt Q61790 24-521); experiment: FACS on HEK293A/mouse LAG3 cells
T1 construct: whole, on cells; also called HEK293A/mouse LAG3
T1 sequence (looked up): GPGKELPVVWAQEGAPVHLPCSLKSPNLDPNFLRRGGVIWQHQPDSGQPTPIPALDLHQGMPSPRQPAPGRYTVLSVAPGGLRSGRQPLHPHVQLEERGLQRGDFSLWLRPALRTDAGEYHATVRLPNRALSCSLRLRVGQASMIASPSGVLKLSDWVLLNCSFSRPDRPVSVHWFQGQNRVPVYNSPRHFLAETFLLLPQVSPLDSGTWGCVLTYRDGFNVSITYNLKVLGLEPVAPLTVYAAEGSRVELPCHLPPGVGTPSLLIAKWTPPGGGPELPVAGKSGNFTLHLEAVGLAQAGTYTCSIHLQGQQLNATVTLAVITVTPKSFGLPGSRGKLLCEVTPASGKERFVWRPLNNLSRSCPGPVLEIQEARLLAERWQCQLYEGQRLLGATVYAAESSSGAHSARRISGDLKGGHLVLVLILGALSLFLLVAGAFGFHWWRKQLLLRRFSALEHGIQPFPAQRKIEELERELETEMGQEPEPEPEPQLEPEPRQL
Method: (§1) Briefly, 10^5 HEK293A cells in 50 μl PBS buffers were seeded into each well of the 96-well plates and then added with 50 μl of serially diluted anti-LAG3 antibodies (5-fold dilution, starting from 40 μg/ml). After incubated at 4° C. for 1 hour, plates were washed 3 times with PBST. Then, an APC coupled Goat Anti-Mouse IgG (BioLegend, US, Cat #: 405308) diluted 500× was added to the plates. After incubation at 4° C. for 1 hour, the plates were washed with PBS for 3 times and then cell fluorescence was monitored using a FACS machine (BD).

[2] = target: T2, monkey (rhesus) LAG3 expressed on HEK293A cells (monkey (rhesus), UniProt A0A5F8A874 23-533); experiment: FACS on HEK293A/rh LAG3 cells
T2 construct: whole, on cells; also called HEK293A/rh LAG3
T2 sequence: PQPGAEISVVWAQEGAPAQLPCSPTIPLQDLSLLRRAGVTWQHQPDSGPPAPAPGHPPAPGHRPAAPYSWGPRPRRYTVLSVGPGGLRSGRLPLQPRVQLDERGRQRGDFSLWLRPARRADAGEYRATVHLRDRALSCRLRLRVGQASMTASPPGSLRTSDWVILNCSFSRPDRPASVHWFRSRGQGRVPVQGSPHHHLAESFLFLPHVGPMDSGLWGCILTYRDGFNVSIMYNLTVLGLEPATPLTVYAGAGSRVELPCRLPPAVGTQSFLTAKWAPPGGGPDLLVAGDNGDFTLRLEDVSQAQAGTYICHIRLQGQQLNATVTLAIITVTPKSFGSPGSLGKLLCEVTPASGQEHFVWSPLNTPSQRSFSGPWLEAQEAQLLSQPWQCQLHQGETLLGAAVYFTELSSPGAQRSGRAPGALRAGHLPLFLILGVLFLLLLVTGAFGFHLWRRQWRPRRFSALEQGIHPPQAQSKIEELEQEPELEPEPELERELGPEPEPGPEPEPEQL
Method: as §1

[3] = target: T3, human LAG3 expressed on HEK293A cells (human, UniProt P18627 23-525); experiment: FACS on HEK293A/human LAG3 cells
T3 construct: whole, on cells; also called HEK293A/human LAG3
T3 sequence (looked up): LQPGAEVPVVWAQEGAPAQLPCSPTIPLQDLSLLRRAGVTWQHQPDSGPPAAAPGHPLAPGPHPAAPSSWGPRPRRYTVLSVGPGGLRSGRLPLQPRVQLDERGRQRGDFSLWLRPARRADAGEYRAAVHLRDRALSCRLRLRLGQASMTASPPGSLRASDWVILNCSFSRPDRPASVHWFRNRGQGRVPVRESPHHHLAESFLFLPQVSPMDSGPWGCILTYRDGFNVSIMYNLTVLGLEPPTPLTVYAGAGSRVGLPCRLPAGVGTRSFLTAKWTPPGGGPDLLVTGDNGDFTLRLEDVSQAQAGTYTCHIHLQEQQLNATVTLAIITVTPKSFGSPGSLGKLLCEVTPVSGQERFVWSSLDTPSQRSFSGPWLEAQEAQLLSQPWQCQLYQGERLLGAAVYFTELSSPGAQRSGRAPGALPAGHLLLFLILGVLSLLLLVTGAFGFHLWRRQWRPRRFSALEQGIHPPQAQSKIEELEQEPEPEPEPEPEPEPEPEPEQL
Method: as §1

- EC50 [2]: 0.39 nM
- EC50 [3]: 0.36 nM
B1: mouse anti-LAG3 monoclonal antibody 101F4 (antibody, V domains shown)
VH: EVQLEQSGAELVRPGASVTLSCKASGYTFTDYEMHWVKQTPVYGLEWMGAIDPETGGIVYNQRFKGKAILTADKSSSTAYMELRSLTSEDSAVYYCTGAGWGYWGQGTTLTVSS
VL: DIVITQSPSSMYASLGERVTITCKASQDINSYLSWFQQKPGKSPKTLIYRANRLLDGVPSRFSGSGSGQDYSLTISSLEFEDMGLYYCLQYDEFPFTFGSGTKLEIK
- binding result [1]: no binding (tested: starting from 40 µg/ml)

- EC50 [2]: 6.5 nM
- EC50 [3]: 8.6 nM
B2: mouse anti-LAG3 monoclonal antibody 134G10 (antibody, V domains shown)
VH: EVQLVESGGDLVKPGGSLKLSCAASGFTFSSFGMSWVRQTPDKRLEWVGIISSGGTYTFYPDILKGRFTISRDNAKNTLYLQMSSLKSEDTAMYYCARVYSDYDGRFDYWGQGTTLTVSS
VL: DIVMTQSPSSLSVSAGEKVTMNCKSSQSLLNSGNQKNYLAWYQQKPGQPPKLLIYGASTRESGVPDRFTGSGSGTDFTLTISSVQAEDLAVYYCQNDHSYPLTFGAGTKLELK
- binding result [1]: no binding (tested: starting from 40 µg/ml)
